According to PMC10047360:

B1: LRP6: B3GnT2−/− (protein)
parent chain: MGAVLRSLLACSFCVLLRAAPLLLYANRRDLRLVDATNGKENATIVVGGLEDAAAVDFVFSHGLIYWSDVSEEAIKRTEFNKTESVQNVVVSGLLSPDGLACDWLGEKLYWTDSETNRIEVSNLDGSLRKVLFWQELDQPRAIALDPSSGFMYWTDWGEVPKIERAGMDGSSRFIIINSEIYWPNGLTLDYEEQKLYWADAKLNFIHKSNLDGTNRQAVVKGSLPHPFALTLFEDILYWTDWSTHSILACNKYTGEGLREIHSDIFSPMDIHAFSQQRQPNATNPCGIDNGGCSHLCLMSPVKPFYQCACPTGVKLLENGKTCKDGATELLLLARRTDLRRISLDTPDFTDIVLQLEDIRHAIAIDYDPVEGYIYWTDDEVRAIRRSFIDGSGSQFVVTAQIAHPDGIAVDWVARNLYWTDTGTDRIEVTRLNGTMRKILISEDLEEPRAIVLDPMVGYMYWTDWGEIPKIERAALDGSDRVVLVNTSLGWPNGLALDYDEGKIYWGDAKTDKIEVMNTDGTGRRVLVEDKIPHIFGFTLLGDYVYWTDWQRRSIERVHKRSAEREVIIDQLPDLMGLKATNVHRVIGSNPCAEENGGCSHLCLYRPQGLRCACPIGFELISDMKTCIVPEAFLLFSRRADIRRISLETNNNNVAIPLTGVKEASALDFDVTDNRIYWTDISLKTISRAFMNGSALEHVVEFGLDYPEGMAVDWLGKNLYWADTGTNRIEVSKLDGQHRQVLVWKDLDSPRALALDPAEGFMYWTEWGGKPKIDRAAMDGSERTTLVPNVGRANGLTIDYAKRRLYWTDLDTNLIESSNMLGLNREVIADDLPHPFGLTQYQDYIYWTDWSRRSIERANKTSGQNRTIIQGHLDYVMDILVFHSSRQSGWNECASSNGHCSHLCLAVPVGGFVCGCPAHYSLNADNRTCSAPTTFLLFSQKSAINRMVIDEQQSPDIILPIHSLRNVRAIDYDPLDKQLYWIDSRQNMIRKAQEDGSQGFTVVVSSVPSQNLEIQPYDLSIDIYSRYIYWTCEATNVINVTRLDGRSVGVVLKGEQDRPRAVVVNPEKGYMYFTNLQERSPKIERAALDGTEREVLFFSGLSKPIALALDSRLGKLFWADSDLRRIESSDLSGANRIVLEDSNILQPVGLTVFENWLYWIDKQQQMIEKIDMTGREGRTKVQARIAQLSDIHAVKELNLQEYRQHPCAQDNGGCSHICLVKGDGTTRCSCPMHLVLLQDELSCGEPPTCSPQQFTCFTGEIDCIPVAWRCDGFTECEDHSDELNCPVCSESQFQCASGQCIDGALRCNGDANCQDKSDEKNCEVLCLIDQFRCANGQCIGKHKKCDHNVDCSDKSDELDCYPTEEPAPQATNTVGSVIGVIVTIFVSGTVYFICQRMLCPRMKGDGETMTNDYVVHGPASVPLGYVPHPSSLSGSLPGMSRGKSMISSLSIMGGSSGPPYDRAHVTGASSSSSSSTKGTYFPAILNPPPSPATERSHYTMEFGYSSNSPSTHRSYSYRPYSYRHFAPPTTPCSTDVCDSDYAPSRRMTSVATAKGYTSDLNYDSEPVPPPPTPRSQYLSAEENYESCPPSPYTERSYSHHLYPPPPSPCTDSS
B2: LRP6: N859Q (protein)
parent chain: B1 parent chain
B3: LRP6: N865Q (protein)
parent chain: B1 parent chain
B4: LRP6: N926Q (protein)
parent chain: B1 parent chain
B5: LRP6: N281Q (protein)
parent chain: B1 parent chain
B6: LRP6: N486Q (protein)
parent chain: B1 parent chain
B7: LRP6: hB3GnT2 co-expression (protein)
parent chain: B1 parent chain
B8: LRP6: N433Q (protein)
parent chain: B1 parent chain

Key:
[1] = Western blot of overexpressed LRP6; details: glycan changed form; control: wild-type HEK293T cells
[2] = Western blot, mature upper band, B3GnT2-/- HEK293T; details: glycan lost; control: wild-type LRP6
[3] = cell-surface HiBiT/LgBiT luminescence to mCherry ratio; details: glycan changed form; control: HiBiT-LRP6-mCherry alone

Protein	localisation_or_trafficking [2]	further results
B1		expression_or_secretion [1]: increases
B2	no change	
B3	no change	
B4	no change	
B5	no change	
B6	no change	
B7		localisation_or_trafficking, fold_change [3]: increases
B8	no change	
